In patent US20140087995A1 (published 2014):
Numbered stars: 1 amine (or outer) side, 2 acyl side, 3 side chain; on linkers, the order of the positions; unused ones are H or OH. Bridge positions count the residues as written; N and C are the ends. Side chains are listed from the residue outwards. Ends that are not written are not given here. * marks the point of attachment. C20 diacid = O=C(O)CCCCCCCCCCCCCCCCCCC(=O)*; γGlu = O=C(O)[C@H](CCC(=O)[*:2])N[*:1]; AEEA = NCCOCCOCC(=O)O

T1: human calcitonin receptor (human, UniProt P30988 25-474)
T1 construct: whole, on cells; Assay used cell membranes, not intact cells; also called hCTR; hCT
T1 sequence (looked up): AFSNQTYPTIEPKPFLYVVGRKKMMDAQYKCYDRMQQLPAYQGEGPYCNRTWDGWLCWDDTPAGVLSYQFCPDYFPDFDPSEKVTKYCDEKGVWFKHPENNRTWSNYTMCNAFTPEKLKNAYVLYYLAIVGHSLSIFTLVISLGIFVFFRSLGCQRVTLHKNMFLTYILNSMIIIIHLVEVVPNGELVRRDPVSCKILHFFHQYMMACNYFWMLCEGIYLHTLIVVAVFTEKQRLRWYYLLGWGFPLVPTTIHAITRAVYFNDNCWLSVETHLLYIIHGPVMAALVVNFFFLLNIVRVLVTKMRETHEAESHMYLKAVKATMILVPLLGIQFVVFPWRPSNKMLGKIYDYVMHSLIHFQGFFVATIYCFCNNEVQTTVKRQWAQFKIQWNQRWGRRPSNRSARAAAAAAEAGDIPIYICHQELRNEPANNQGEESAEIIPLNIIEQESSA

T2: human amylin receptor (amylin 3(a) receptor: human calcitonin receptor with RAMP-3) (human, UniProt P30988 25-474; O60896 24-148)
T2 construct: whole, on cells; Assay used cell membranes of the Amylin 3(a)/CRE-luc BHK cells, not intact cells; also called hAmylin-R; hAmylinR
T2 sequence (looked up) 1: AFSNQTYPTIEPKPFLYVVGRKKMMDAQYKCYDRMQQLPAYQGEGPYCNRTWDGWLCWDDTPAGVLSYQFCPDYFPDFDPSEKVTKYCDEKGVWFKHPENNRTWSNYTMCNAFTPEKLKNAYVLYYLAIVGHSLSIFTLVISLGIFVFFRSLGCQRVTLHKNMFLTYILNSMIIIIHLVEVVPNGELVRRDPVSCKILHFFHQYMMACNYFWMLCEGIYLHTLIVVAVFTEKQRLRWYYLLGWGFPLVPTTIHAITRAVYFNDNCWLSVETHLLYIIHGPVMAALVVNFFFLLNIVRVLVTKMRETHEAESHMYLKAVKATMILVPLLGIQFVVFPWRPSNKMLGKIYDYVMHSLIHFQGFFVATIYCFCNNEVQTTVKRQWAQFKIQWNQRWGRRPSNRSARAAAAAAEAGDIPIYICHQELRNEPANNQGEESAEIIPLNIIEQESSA
T2 sequence (looked up) 2: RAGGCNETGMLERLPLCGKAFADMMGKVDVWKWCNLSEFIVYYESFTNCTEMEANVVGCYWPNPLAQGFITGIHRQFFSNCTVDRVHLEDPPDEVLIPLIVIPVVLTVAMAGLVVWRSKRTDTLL


Columns and labels:
[1] = target: T1, human calcitonin receptor; experiment: SPA competition with 125I-calcitonin on membranes of BHK cells with human calcitonin receptor (Assay VII)
Protocol: Membranes were prepared in the following way; the cells were rinsed with PBS and incubated with Versene for approximately 5 min before harvesting. The cells were flushed with PBS and the cell-suspension was centrifuged for 5 min at 1000 rpm. Cells were homogenized (Ultrathurrax) in a buffer containing 20 mM Na-HEPES and 10 mM EDTA (pH 7.4) and centrifuged at 20.000 rpm for 15 min. The resulting pellet was resuspended, homogenized and centrifuged (20.000 rpm, 15 min) in a buffer containing 20 mM Na-HEPES and 0.1 mM EDTA (pH 7.4, buffer 2). The resulting pellet was resuspended in buffer 2 and protein concentration was measured (BCA protein Assay, Pierce). The homogenate was kept cold during the whole procedure. The membranes were kept at −80° C. until use. Assay was performed in a 384 well Optiplate (PerkinElmer) in a total volume of 40 ul. Membranes were mixed with SPA beads. Final concentration of membranes 35 ng/μL final and Final concentration of SPA beads was 0.05 mg/well. Test-compounds were dissolved in DMSO and further diluted in assay buffer (50 mM Hepes, pH 7.4, 1 mM CaCl2, 5 mM MgCl₂, 0.1% OA and 0.02% Tween20). […] The final mixture was incubated for 120 min with shaking at 400 rpm at 25° C. prior to centrifugation (1500 rpm, 10 min). Samples were analyzed on TopCounter™ (Packard). The […] was calculated using (one site binding competition analysis) GraphPad Prism5 as a measure of receptor affinity.

[2] = target: T1, human calcitonin receptor; experiment: ratio IC50 hCTR / IC50 hAmylin-R (reference: human amylin receptor), SPA competition assays
Protocol: The resulting pellet was resuspended, homogenized and centrifuged (20.000 rpm, 15 min) in a buffer containing 20 mM Na-HEPES and 0.1 mM EDTA (pH 7.4, buffer 2). The resulting pellet was resuspended in buffer 2 and protein concentration was measured (BCA protein Assay, Pierce). The homogenate was kept cold during the whole procedure. The membranes were kept at −80° C. until use. The assay was performed in a 384 well Optiplate (PerkinElmer) in a total volume of 40 ul. Membranes were mixed with SPA beads. Final concentration of membranes 35 ng/μL final and SPA beads was 0.05 mg/well. Test-compounds were dissolved in DMSO and further diluted in assay buffer (50 mM Hepes, pH 7.4, 1 mM CaCl2, 5 mM MgCl₂, 0.1% OA and 0.02% Tween20). […] The final mixture was incubated with shaking at 400 rpm for 120 min at 25° C. prior to centrifugation (1500 rpm, 10 min). Samples were analyzed on TopCounter™ (Packard). The IC₅₀ was calculated using (one site binding competition analysis) GraphPad Prism5 as a measure of receptor affinity.
Membranes were prepared in the following way; the cells were rinsed with PBS and incubated with Versene for approximately 5 min before harvesting. The cells were flushed with PBS and the cell-suspension was centrifuged for 5 min at 1000 rpm. Cells were homogenized (Ultrathurrax) in a buffer containing 20 mM Na-HEPES and 10 mM EDTA (pH 7.4) and centrifuged at 20.000 rpm for 15 min. The resulting pellet was resuspended, homogenized and centrifuged (20.000 rpm, 15 min) in a buffer containing 20 mM Na-HEPES and 0.1 mM EDTA (pH 7.4, buffer 2). The resulting pellet was resuspended in buffer 2 and protein concentration was measured (BCA protein Assay, Pierce). The homogenate was kept cold during the whole procedure. The membranes were kept at −80° C. until use. Assay was performed in a 384 well Optiplate (PerkinElmer) in a total volume of 40 ul. Membranes were mixed with SPA beads.

[3] = target: T2, human amylin receptor (amylin 3(a) …); experiment: SPA competition with 125I-rat amylin on membranes of BHK cells with human calcitonin receptor and RAMP-3 (Assay V)
Protocol: The binding assay was performed using scintillation proximity assay (SPA) beads (RPNQ0001) from PerkinElmer and cell membranes from the Amylin 3(a)/CRE-luc cells (as described in Assay (II)) were used. Membranes were prepared in the following way; the cells were rinsed with PBS and incubated with Versene for approximately 5 min before harvesting. The cells were flushed with PBS and the cell-suspension was centrifuged for 5 min at 1000 rpm. Cells were homogenized (ultrathurrax) in a buffer containing 20 mM Na-HEPES and 10 mM EDTA (pH 7.4) and centrifuged at 20.000 rpm for 15 min. The resulting pellet was resuspended, homogenized and centrifuged (20.000 rpm, 15 min) in a buffer containing 20 mM Na-HEPES and 0.1 mM EDTA (pH 7.4, buffer 2). The resulting pellet was resuspended in buffer 2 and protein concentration was measured (BCA protein Assay, Pierce). The homogenate was kept cold during the whole procedure. The membranes were kept at −80° C. until use. The assay was performed in a 384 well Optiplate (PerkinElmer) in a total volume of 40 ul. Membranes were mixed with SPA beads. Final concentration of membranes 35 ng/μL final and SPA beads was 0.05 mg/well. Test-compounds were dissolved in DMSO and further diluted in assay buffer (50 mM Hepes, pH 7.4, 1 mM CaCl2, 5 mM MgCl₂, 0.1% OA and 0.02% Tween20). […] The final mixture was incubated with shaking at 400 rpm for 120 min at 25° C. prior to centrifugation (1500 rpm, 10 min). Samples were analyzed on TopCounter™ (Packard). The IC₅₀ was calculated using (one site binding competition analysis) GraphPad Prism5 as a measure of receptor affinity.

Binder | IC50 [1] [nM] | Ratio hCT/hAmylin binding [2] | IC50 [3] [nM]
K([AEEA-AEEA-γGlu-C20 diacid])CNTATCATQRLANFLRHSSPNFGAIPSSTNVGHNTY-NH2 (disulfide 2-7; N-terminus assumed; SMILES CC[C@H](C)[C@H](NC(=O)[C@H](C)NC(=O)CNC(=O)[C@H](Cc1ccccc1)NC(=O)[C@H](CC(N)=O)NC(=O)[C@@H]1CCCN1C(=O)[C@H](CO)NC(=O)[C@H](CO)NC(=O)[C@H](Cc1c[nH]cn1)NC(=O)[C@H](CCCNC(=N)N)NC(=O)[C@H](CC(C)C)NC(=O)[C@H](Cc1ccccc1)NC(=O)[C@H](CC(N)=O)NC(=O)[C@H](C)NC(=O)[C@H](CC(C)C)NC(=O)[C@H](CCCNC(=N)N)NC(=O)[C@H](CCC(N)=O)NC(=O)[C@@H](NC(=O)[C@H](C)NC(=O)[C@@H]1CSSC[C@H](NC(=O)[C@@H](N)CCCCNC(=O)COCCOCCNC(=O)COCCOCCNC(=O)CC[C@H](NC(=O)CCCCCCCCCCCCCCCCCCC(=O)O)C(=O)O)C(=O)N[C@@H](CC(N)=O)C(=O)N[C@@H]([C@@H](C)O)C(=O)N[C@@H](C)C(=O)N[C@@H]([C@@H](C)O)C(=O)N1)[C@@H](C)O)C(=O)N1CCC[C@H]1C(=O)N[C@@H](CO)C(=O)N[C@@H](CO)C(=O)N[C@H](C(=O)N[C@@H](CC(N)=O)C(=O)N[C@H](C(=O)NCC(=O)N[C@@H](Cc1c[nH]cn1)C(=O)N[C@@H](CC(N)=O)C(=O)N[C@H](C(=O)N[C@@H](Cc1ccc(O)cc1)C(N)=O)[C@@H](C)O)C(C)C)[C@@H](C)O, also called compound 97) | 58.9 | 104 | 0.568
K([AEEA-AEEA-γGlu-C20 diacid])CNTATCATQRLANFLRHSSPNFGAIPSSTPVGSNTY-NH2 (disulfide 2-7; N-terminus assumed; SMILES CC[C@H](C)[C@H](NC(=O)[C@H](C)NC(=O)CNC(=O)[C@H](Cc1ccccc1)NC(=O)[C@H](CC(N)=O)NC(=O)[C@@H]1CCCN1C(=O)[C@H](CO)NC(=O)[C@H](CO)NC(=O)[C@H](Cc1c[nH]cn1)NC(=O)[C@H](CCCNC(=N)N)NC(=O)[C@H](CC(C)C)NC(=O)[C@H](Cc1ccccc1)NC(=O)[C@H](CC(N)=O)NC(=O)[C@H](C)NC(=O)[C@H](CC(C)C)NC(=O)[C@H](CCCNC(=N)N)NC(=O)[C@H](CCC(N)=O)NC(=O)[C@@H](NC(=O)[C@H](C)NC(=O)[C@@H]1CSSC[C@H](NC(=O)[C@@H](N)CCCCNC(=O)COCCOCCNC(=O)COCCOCCNC(=O)CC[C@H](NC(=O)CCCCCCCCCCCCCCCCCCC(=O)O)C(=O)O)C(=O)N[C@@H](CC(N)=O)C(=O)N[C@@H]([C@@H](C)O)C(=O)N[C@@H](C)C(=O)N[C@@H]([C@@H](C)O)C(=O)N1)[C@@H](C)O)C(=O)N1CCC[C@H]1C(=O)N[C@@H](CO)C(=O)N[C@@H](CO)C(=O)N[C@H](C(=O)N1CCC[C@H]1C(=O)N[C@H](C(=O)NCC(=O)N[C@@H](CO)C(=O)N[C@@H](CC(N)=O)C(=O)N[C@H](C(=O)N[C@@H](Cc1ccc(O)cc1)C(N)=O)[C@@H](C)O)C(C)C)[C@@H](C)O, also called compound 96) | 13.2 | 79.6 | 0.166
K([AEEA-γGlu-C20 diacid])CNTATCATQRLARFLRHSSPNFGAIPSSTNVGSNTY-NH2 (disulfide 2-7; N-terminus assumed; SMILES CC[C@H](C)[C@H](NC(=O)[C@H](C)NC(=O)CNC(=O)[C@H](Cc1ccccc1)NC(=O)[C@H](CC(N)=O)NC(=O)[C@@H]1CCCN1C(=O)[C@H](CO)NC(=O)[C@H](CO)NC(=O)[C@H](Cc1c[nH]cn1)NC(=O)[C@H](CCCNC(=N)N)NC(=O)[C@H](CC(C)C)NC(=O)[C@H](Cc1ccccc1)NC(=O)[C@H](CCCNC(=N)N)NC(=O)[C@H](C)NC(=O)[C@H](CC(C)C)NC(=O)[C@H](CCCNC(=N)N)NC(=O)[C@H](CCC(N)=O)NC(=O)[C@@H](NC(=O)[C@H](C)NC(=O)[C@@H]1CSSC[C@H](NC(=O)[C@@H](N)CCCCNC(=O)COCCOCCNC(=O)CC[C@H](NC(=O)CCCCCCCCCCCCCCCCCCC(=O)O)C(=O)O)C(=O)N[C@@H](CC(N)=O)C(=O)N[C@@H]([C@@H](C)O)C(=O)N[C@@H](C)C(=O)N[C@@H]([C@@H](C)O)C(=O)N1)[C@@H](C)O)C(=O)N1CCC[C@H]1C(=O)N[C@@H](CO)C(=O)N[C@@H](CO)C(=O)N[C@H](C(=O)N[C@@H](CC(N)=O)C(=O)N[C@H](C(=O)NCC(=O)N[C@@H](CO)C(=O)N[C@@H](CC(N)=O)C(=O)N[C@H](C(=O)N[C@@H](Cc1ccc(O)cc1)C(N)=O)[C@@H](C)O)C(C)C)[C@@H](C)O, also called compound 82) | 88.8 | 140 | 0.636
